{
  "source": "patent US20230167458A1",
  "about": "“FORSKOLIN-INDUCIBLE PROMOTERS AND HYPOXIA-INDUCIBLE PROMOTERS” (ASKLEPIOS BIOPHARMACEUTICAL, INC., priority 2020, published 2023)",
  "molecules": {"B1": {"name": "RTV-015: synthetic hypoxia-inducible promoter, SEQ ID NO: 81; 5 HRE1 elements spaced by 40 bp and minimal promoter MP1 (nucleic acid)", "DNA": "ACGTGCGATGATGCGTAGCTAGTAGTGATGATGCGTAGCTAGTAGTACGTGCGATGATGCGTAGCTAGTAGTGATGATGCGTAGCTAGTAGTACGTGCGATGATGCGTAGCTAGTAGTGATGATGCGTAGCTAGTAGTACGTGCGATGATGCGTAGCTAGTAGTGATGATGCGTAGCTAGTAGTACGTGCTTGGTACCATCCGGGCCGGCCGCTTAAGCGACGCCTATAAAAAATAGGTTGCATGCTAGGCCTAGCGCTGCCAGTCCATCTTCGCTAGCCTGTGCTGCGTCAGTCCAGCGCTGCGCTGCGTAACGGCCGCC", "modifications": "Synp-RTV-015", "notes": "5 HRE1 elements spaced by 40 bp and minimal promoter MP1"}, "B2": {"name": "HV3C: synthetic hypoxia-inducible promoter, SEQ ID NO: 85/87; 4 HRE3 elements and CMV minimal promoter (nucleic acid)", "DNA": "GATCTTTGTATTTAATTAAGACCTTGAGTACGTGCGTCTCTGCACGTATGGCGATTAAGACCTTGAGTACGTGCGTCTCTGCACGTATGGCGATTAAGACCTTGAGTACGTGCGTCTCTGCACGTATGGCGATTAAGACCTTGAGTACGTGCGTCTCTGCACGTATGGCGATTAATCCATATGCAGGTCTATATAAGCAGAGCTCGTTTAGTGAACCGTCAGATCGCCTAGATACGCCATCCACGCTGTTTTGACCTCCATAGAAGATCGCCACC", "modifications": "Synp-HV3C", "notes": "4 HRE3 elements and CMV minimal promoter"}},
  "key": {"[1]": {"test_system": "HEK293-T", "experiment": "Luciferase expression in normoxia vs 24 h hypoxia, transiently transfected HEK293-T", "format": "cell-based, human", "details": "for relative rank of promoter strength: 24 h hypoxia vs 24 h normoxia", "description": "HEK293-T are seeded at a density of 20%. Once they reached a confluence between 60 and 80%, the media is changed with DMEM (#21885-025—Thermo Scientific) supplemented with 10% FBS (Gibco, 26140). After 3 hours, the cells were transfected by a transfection mix. The transfection mix is prepared by adding DNA ([…] per 6 well plate) and PEI 25 kDA (#23966-1—Polyscience) in a ratio of 1:3 in sterile DPBS (#14190169—ThermoFisher Scientific). After mixing, the transfection mix is incubated at room temperature for 30 minutes and then added directly to the cells. After 16 to 18 h post transfection, the media is changed to DMEM+2% FBS. The transfected DNA was one of the vectors where the promoter constructs (RTV-015, HYBT, RTV-016, HV3C) or a control promoter (CMV-IE) were used to drive luciferase expression and β-galactosidase containing pcDNA6 plasmid. The β-galactosidase containing plasmid was used as internal control for transfection efficiency (Thermofisher, V22020).\nAfter transfection the cells were incubated for 24 hrs in normoxic conditions (20% oxygen). Induction of the promoters was assessed by using luciferase activity after 24 hrs in normoxia or hypoxia (5% oxygen, 10% carbon dioxide and 85% nitrogen). Hypoxia was achieved by gas displacement in a sealed hypoxia chamber.\n(§1) Luciferase activity was measured using LARII (Dual Luciferase Reporter 1000 assay system, Promega, E1980).\nMedia was removed from the cells at the respective time point (0, 3, 5, 24 hrs after induction). The cells were washed once in 300 μl of DPBS. Cells were lysed by adding 100 μl of passive lysis buffer to the cells and incubation with rocking for 15 minutes. The cell debris was pelleted by centrifugation of the plate at max speed in a benchtop centrifuge for 1 min. 10 μl of supernatant was pipetted into white 96-well plate and luminescence measured by addition of 50 μl of LARII substrate.\nβ-galactosidase activity was measured as per manufacturer's instructions (Mammalian βGalactosidase Assay Kit, 75707/75710, Thermo Scientific) using 25 μl of lysate. 25 μl of lysate was transferred into a microplate well and mixed with 25 μl of β-galactosidase Assay Reagent, equilibrated to room temperature. The mixture was incubated at 37° C. for 30 min and absorbance measured at 405 nm.\n(§2) Luciferase readouts were normalised to β-galactosidase to produce normalised relative luminometer units (RLUs)."}, "[2]": {"test_system": "HEK293-F", "experiment": "Luciferase time course under hypoxia, transiently transfected HEK293-F", "format": "cell-based, human", "details": "hypoxia 5% oxygen, printed order RTV-015, SYNP-HYP-001, RTV-016, HYBT, HV3C", "description": "The constructs were initially used to drive luciferase expression in HEK293-F and HEK293-T in hypoxia.\n40 ml of cells were grown in a 250 ml vented Erlenmeyer flask (Sigma-Aldrich CLS431144) at 37° C., 20% O2, 8% CO2 with agitation at 100 rpm. Cells were seeded as described in the manufacturer's instructions (300,000 cells/ml). HEK293-F were obtained from Thermofisher, R79007.\nOne day before transfection, the cells were counted using a haemocytometer and split to 500,000 cells/ml.\nOn the day of transfection, the cells are seeded to 1,000,000 cells/ml in 500 μl of appropriate medium (Freestyle 293 expression medium, 12338002) in a 24 well plate. […] of DNA per well was then added to 10 μl of OptiMem medium (Thermofisher; 11058021) and incubated for 5 minutes at room temperature.\nConcurrently, 0.625 μl of Max reagent (Thermofisher, 16447100) was made up to 10 μl by addition of OptiMem and incubated for 5 minutes at room temperature. After this incubation, both mixes were added to the same tube and incubated at room temperature for 25-30 minutes. […]\nAfter transfection the cells were incubated for 24 hrs in normoxia conditions (20% oxygen) before being switched to a gas mix of 5% oxygen, 10% carbon dioxide and 85% nitrogen (hypoxia). […] Induction of the promoters was assessed by using luciferase activity after 3, 5 and 24 hrs in hypoxia.\nas §1\nMedia was removed from the cells at the respective time point (0, 3, 5, 24 hrs after induction). […] 10 μl of supernatant was pipetted into white 96-well plate and luminescence measured by addition of 50 μl of LARII substrate.\nβ-galactosidase activity was measured as per manufacturer's instructions (Mammalian βGalactosidase Assay Kit, 75707/75710, Thermo Scientific) using 25 μl of lysate. […] The mixture was incubated at 37° C. for 30 min and absorbance measured at 405 nm.\nas §2"}},
  "data": [
    {"molecule": "B1", "values": [
      {"measurement": "inducibility after 24 hours in hypoxia (rank)", "setting": "[1]", "result": "lowest"},
      {"measurement": "luciferase activity in normoxia", "setting": "[1]", "result": "almost no luciferase activity"},
      {"measurement": "relative rank of promoter strength", "setting": "[1]", "result": "weakest"},
      {"measurement": "relative rank of promoter activity", "setting": "[2]", "result": "weakest"}
    ]},
    {"molecule": "B2", "values": [
      {"measurement": "inducibility after 24 hours in hypoxia (rank)", "setting": "[1]", "result": "highest"},
      {"measurement": "luciferase activity in normoxia", "setting": "[1]", "result": "almost no luciferase activity"},
      {"measurement": "relative rank of promoter strength", "setting": "[1]", "result": "strongest"},
      {"measurement": "relative rank of promoter activity", "setting": "[2]", "result": "strongest"}
    ]}
  ]
}
